Measured values reported in article PMC4405707.

Assays:
[1] = outside-out patch, 10 mM glutamate, τw,des; settings: glycan lost; control: GluA2i WT + γ-2
[2] = outside-out patch, steady state-to-peak ratio; settings: glycan lost; control: GluA2i WT + γ-2

B1: GluA2i: N385D (protein)
parent chain: MQKIMHISVLLSPVLWGLIFGVSSNSIQIGGLFPRGADQEYSAFRVGMVQFSTSEFRLTPHIDNLEVANSFAVTNAFCSQFSRGVYAIFGFYDKKSVNTITSFCGTLHVSFITPSFPTDGTHPFVIQMRPDLKGALLSLIEYYQWDKFAYLYDSDRGLSTLQAVLDSAAEKKWQVTAINVGNINNDKKDETYRSLFQDLELKKERRVILDCERDKVNDIVDQVITIGKHVKGYHYIIANLGFTDGDLLKIQFGGANVSGFQIVDYDDSLVSKFIERWSTLEEKEYPGAHTATIKYTSALTYDAVQVMTEAFRNLRKQRIEISRRGNAGDCLANPAVPWGQGVEIERALKQVQVEGLSGNIKFDQNGKRINYTINIMELKTNGPRKIGYWSEVDKMVVTLTELPSGNDTSGLENKTVVVTTILESPYVMMKKNHEMLEGNERYEGYCVDLAAEIAKHCGFKYKLTIVGDGKYGARDADTKIWNGMVGELVYGKADIAIAPLTITLVREEVIDFSKPFMSLGISIMIKKPQKSKPGVFSFLDPLAYEIWMCIVFAYIGVSVVLFLVSRFSPYEWHTEEFEDGRETQSSESTNEFGIFNSLWFSLGAFMQQGCDISPRSLSGRIVGGVWWFFTLIIISSYTANLAAFLTVERMVSPIESAEDLSKQTEIAYGTLDSGSTKEFFRRSKIAVFDKMWTYMRSAEPSVFVRTTAEGVARVRKSKGKYAYLLESTMNEYIEQRKPCDTMKVGGNLDSKGYGIATPKGSSLGTPVNLAVLKLSEQGVLDKLKNKWWYDKGECGAKDSGSKEKTSALSLSNVAGVFYILVGGLGLAMLVALIEFCYKSRAEAKRMKVAKNPQNINPSSSQNSQNFATYKEGYNVYGIESVKI
In the case of B1, the “other: channel desensitisation kinetics” value [1] is reported as “no change” and the “other: steady-state channel current” value [2] is reported as “increases”.

B2: GluA2i: N392Q (protein)
parent chain: MQKIMHISVLLSPVLWGLIFGVSSNSIQIGGLFPRGADQEYSAFRVGMVQFSTSEFRLTPHIDNLEVANSFAVTNAFCSQFSRGVYAIFGFYDKKSVNTITSFCGTLHVSFITPSFPTDGTHPFVIQMRPDLKGALLSLIEYYQWDKFAYLYDSDRGLSTLQAVLDSAAEKKWQVTAINVGNINNDKKDETYRSLFQDLELKKERRVILDCERDKVNDIVDQVITIGKHVKGYHYIIANLGFTDGDLLKIQFGGANVSGFQIVDYDDSLVSKFIERWSTLEEKEYPGAHTATIKYTSALTYDAVQVMTEAFRNLRKQRIEISRRGNAGDCLANPAVPWGQGVEIERALKQVQVEGLSGNIKFDQNGKRINYTINIMELKTNGPRKIGYWSEVDKMVVTLTELPSGNDTSGLENKTVVVTTILESPYVMMKKNHEMLEGNERYEGYCVDLAAEIAKHCGFKYKLTIVGDGKYGARDADTKIWNGMVGELVYGKADIAIAPLTITLVREEVIDFSKPFMSLGISIMIKKPQKSKPGVFSFLDPLAYEIWMCIVFAYIGVSVVLFLVSRFSPYEWHTEEFEDGRETQSSESTNEFGIFNSLWFSLGAFMQQGCDISPRSLSGRIVGGVWWFFTLIIISSYTANLAAFLTVERMVSPIESAEDLSKQTEIAYGTLDSGSTKEFFRRSKIAVFDKMWTYMRSAEPSVFVRTTAEGVARVRKSKGKYAYLLESTMNEYIEQRKPCDTMKVGGNLDSKGYGIATPKGSSLGTPVNLAVLKLSEQGVLDKLKNKWWYDKGECGAKDSGSKEKTSALSLSNVAGVFYILVGGLGLAMLVALIEFCYKSRAEAKRMKVAKNPQNINPSSSQNSQNFATYKEGYNVYGIESVKI
With B2 the “other: channel desensitisation kinetics” value [1] was “no change” and the “other: steady-state channel current” value [2] was “increases”.
